For this assay, the target named is Rap1B (Rap1B portion of the EPAC2-GFP-RAP1B sensor) (Homo sapiens (Human)) (UniProt P61224). Briefly: cell-based or functional assay.
Sequence of Rap1B (Rap1B portion of the EPAC2-GFP-RAP1B sensor) (Homo sapiens (Human)) (P61224 other isoform, or with tags, fused parts or gaps limits assumed): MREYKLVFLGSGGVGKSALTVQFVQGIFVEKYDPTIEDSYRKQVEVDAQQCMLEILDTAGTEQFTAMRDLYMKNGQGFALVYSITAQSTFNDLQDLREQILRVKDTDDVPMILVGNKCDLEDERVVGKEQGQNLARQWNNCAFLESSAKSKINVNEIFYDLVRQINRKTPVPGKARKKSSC

Turning to “Epac2 (Epac2 portion of the EPAC2-GFP-RAP1B sensor) (from UniProt Q8WZA2 1-1011)”, the Relative Change in Fluorescence in Response to Isoproternol (EPAC2gfpRAP1B sensor) amounted to 26%.

Take “Epac2 (Epac2 portion of the EPAC2-GFP-RAP1B sensor) (from UniProt Q8WZA2 1-1011) (enzyme)”: the change in fluorescence of the tethered Epac2-cpEGFP-Rap1B sensor in response to drug (isoproterenol), HEK 293 cells worked out at 25%.

The values are drawn from patent US20160274109A1.
